T1: dynein intermediate chain (DIC), Q13409
T1 chain: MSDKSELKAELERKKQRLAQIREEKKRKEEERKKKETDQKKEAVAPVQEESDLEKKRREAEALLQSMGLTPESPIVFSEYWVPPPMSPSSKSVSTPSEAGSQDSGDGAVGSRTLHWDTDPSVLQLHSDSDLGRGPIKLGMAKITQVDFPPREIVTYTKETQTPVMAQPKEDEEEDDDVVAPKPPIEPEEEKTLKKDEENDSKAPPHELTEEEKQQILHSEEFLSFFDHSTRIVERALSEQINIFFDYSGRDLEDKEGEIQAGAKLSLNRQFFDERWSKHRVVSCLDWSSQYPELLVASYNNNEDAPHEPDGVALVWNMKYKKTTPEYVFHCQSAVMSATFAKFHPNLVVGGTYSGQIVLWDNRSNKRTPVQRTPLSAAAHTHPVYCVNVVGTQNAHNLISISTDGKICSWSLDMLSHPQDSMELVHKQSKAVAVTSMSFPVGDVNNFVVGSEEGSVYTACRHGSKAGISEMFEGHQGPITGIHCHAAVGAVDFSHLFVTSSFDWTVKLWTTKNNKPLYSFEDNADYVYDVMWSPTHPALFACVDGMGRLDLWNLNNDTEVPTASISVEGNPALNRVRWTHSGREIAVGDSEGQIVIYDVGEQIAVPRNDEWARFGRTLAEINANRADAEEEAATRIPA


Biological target: T1, dynein intermediate chain (DIC), Q13409
Assay: MBP pull-down from HEK293T cell lysate, immunoblot, band intensity quantified
Conditions: chain shown with the change; n = 3; parent: est. 0.46; read off a plot

| Binder | response (Pulldown/Input) |
| --- | --- |
| MBP-tagged Hook2 Hook+CC1 (N427) WT, Q96ED9 I150A (protein) MSVDKAELCGSLLTWLQTFHVPSPCASPQDLSSGLAVAYVLNQIDPSWFNEAWLQGISEDPGPNWKLKVSNLKMVLRSLVEYSQDVLAHPVSEEHLPDVSLIGEFSDPAELGKLLQLVLGCAISCEKKQDHIQRIMTLEESVQHVVMEAAQELMTKDTPDSLSPETYGNFDSQSRRYYFLSEEAEEGDELQQRCLDLERQLMLLSEEKQSLAQENAGLRERMGRPEGEGTPGLTAKKLLLLQSQLEQLQEENFRLESGREDERLRCAELEREVAELQHRNQALTSLAQEAQALKDEMDELRQSSERAGQLEATLTSCRRRLGELRELRRQVRQLEERNAGHAERTRQLEDELRRAGSLRAQLEAQRRQVQELQGQRQEEAMKAEKWLFECRNLEEKYESVTKEKERLLAERDSLREANEELRCAQLQ | 0.02 |
| MBP-tagged Hook2 Hook+CC1 (N427) WT, Q96ED9 Q143A (protein) MSVDKAELCGSLLTWLQTFHVPSPCASPQDLSSGLAVAYVLNQIDPSWFNEAWLQGISEDPGPNWKLKVSNLKMVLRSLVEYSQDVLAHPVSEEHLPDVSLIGEFSDPAELGKLLQLVLGCAISCEKKQDHIQRIMTLEESVAHVVMEAIQELMTKDTPDSLSPETYGNFDSQSRRYYFLSEEAEEGDELQQRCLDLERQLMLLSEEKQSLAQENAGLRERMGRPEGEGTPGLTAKKLLLLQSQLEQLQEENFRLESGREDERLRCAELEREVAELQHRNQALTSLAQEAQALKDEMDELRQSSERAGQLEATLTSCRRRLGELRELRRQVRQLEERNAGHAERTRQLEDELRRAGSLRAQLEAQRRQVQELQGQRQEEAMKAEKWLFECRNLEEKYESVTKEKERLLAERDSLREANEELRCAQLQ | 0.02 |
